From patent US20200399308A1, “COMPOUNDS AND METHODS FOR ELICITING ANTIMICROBIAL ACTIVITY” (Technion Research & Development Foundation Limited, priority 2018, published 2020)

How the values were obtained:
Escherichia coli 25922 = experiment: Serum survival assay; format: cell-based; settings: mouse serum; 13 μM lactoferrin with 10 μM Compound B
Protocol: (§1) Serum survival assays were performed using fresh serum from normal mice or human serum from the Israel Blood Bank; samples were pooled and stored in aliquots at −80° C. until use. Time-dependent killing was determined in a final volume of 125 μL consisting of 112.5 μL of serum containing either a tested compound, egg white lysozyme (Amresco), lactoferrin (Vivinal lactoferrin FD; DMV International, Delhi, N.Y.), anti-murine C5/C5a antibody (25 μg/mL; ab194637; Abcam), or their combination, as specified. These solutions were supplemented with 12.5 μL of bacteria suspended in PBS at the desired concentration. After the specified time points of exposure, cultures were subjected to serial 10-fold dilutions in saline (0.85% NaCl) and plated for bacterial enumeration after incubation at 37° C. for an additional 24 hours. In heat-treated experiments, sera were incubated at 56° C. for 30 minutes for protein inactivation. Data were obtained from 3 independent experiments.

[1] = system: Klebsiella pneumoniae 1287; experiment: Serum survival assay; format: cell-based; settings: mouse serum; 13 μM lactoferrin with 10 μM Compound B
Protocol: as §1

B1: lactoferrin: host defense antimicrobial protein (Vivinal lactoferrin FD) (protein, UniProt P24627 20-708, looked up)
Lactotransferrin: APRKNVRWCTISQPEWFKCRRWQWRMKKLGAPSITCVRRAFALECIRAIAEKKADAVTLDGGMVFEAGRDPYKLRPVAAEIYGTKESPQTHYYAVAVVKKGSNFQLDQLQGRKSCHTGLGRSAGWIIPMGILRPYLSWTESLEPLQGAVAKFFSASCVPCIDRQAYPNLCQLCKGEGENQCACSSREPYFGYSGAFKCLQDGAGDVAFVKETTVFENLPEKADRDQYELLCLNNSRAPVDAFKECHLAQVPSHAVVARSVDGKEDLIWKLLSKAQEKFGKNKSRSFQLFGSPPGQRDLLFKDSALGFLRIPSKVDSALYLGSRYLTTLKNLRETAEEVKARYTRVVWCAVGPEEQKKCQQWSQQSGQNVTCATASTTDDCIVLVLKGEADALNLDGGYIYTAGKCGLVPVLAENRKSSKHSSLDCVLRPTEGYLAVAVVKKANEGLTWNSLKDKKSCHTAVDRTAGWNIPMGLIVNQTGSCAFDEFFSQSCAPGADPKSRLCALCAGDDQGLDKCVPNSKEKYYGYTGAFRCLAEDVGDVAFVKNDTVWENTNGESTADWAKNLNREDFRLLCLDGTRKPVTEAQSCHLAVAPNHAVVSRSDRAAHVKQVLLHQQALFGKNGKNCPDKFCLFKSETKNLLFNDNTECLAKLGGRPTYEEYLGTEYVTAIANLKKCSTSPLLEACAFLTR
How did the “sensitization by Compound B to lactoferrin” value (Escherichia coli 25922) turn out when B1 was run?
Its value is “no significant sensitization”.

What about the “sensitization by Compound B to lactoferrin” value [1] of the same molecule?
Its value is “no significant sensitization”.
